Measurements from IntAct's records for PubMed 29039417.

B1: BBSome complex member BBS1 (Homo sapiens), Q8NFJ9 (parent)
chain: MAAASSSDSDACGAESNEANSKWLDAHYDPMANIHTFSACLALADLHGDGEYKLVVGDLGPGGQQPRLKVLKGPLVMTESPLPALPAAAATFLMEQHEPRTPALALASGPCVYVYKNLRPYFKFSLPQLPPNPLEQDLWNQAKEDRIDPLTLKEMLESIRETAEEPLSIQSLRFLQLELSEMEAFVNQHKSNSIKRQTVITTMTTLKKNLADEDAVSCLVLGTENKELLVLDPEAFTILAKMSLPSVPVFLEVSGQFDVEFRLAAACRNGNIYILRRDSKHPKYCIELSAQPVGLIRVHKVLVVGSTQDSLHGFTHKGKKLWTVQMPAAILTMNLLEQHSRGLQAVMAGLANGEVRIYRDKALLNVIHTPDAVTSLCFGRYGREDNTLIMTTRGGGLIIKILKRTAVFVEGGSEVGPPPAQAMKLNVPRKTRLYVDQTLREREAGTAMHRAFQTDLYLLRLRAARAYLQALESSLSPLSTTAREPLKLHAVVQGLGPTFKLTLHLQNTSTTRPVLGLLVCFLYNEALYSLPRAFFKVPLLVPGLNYPLETFVESLSNKGISDIIKVLVLREGQSAPLLSAHVNMPGSEGLAAA
partner: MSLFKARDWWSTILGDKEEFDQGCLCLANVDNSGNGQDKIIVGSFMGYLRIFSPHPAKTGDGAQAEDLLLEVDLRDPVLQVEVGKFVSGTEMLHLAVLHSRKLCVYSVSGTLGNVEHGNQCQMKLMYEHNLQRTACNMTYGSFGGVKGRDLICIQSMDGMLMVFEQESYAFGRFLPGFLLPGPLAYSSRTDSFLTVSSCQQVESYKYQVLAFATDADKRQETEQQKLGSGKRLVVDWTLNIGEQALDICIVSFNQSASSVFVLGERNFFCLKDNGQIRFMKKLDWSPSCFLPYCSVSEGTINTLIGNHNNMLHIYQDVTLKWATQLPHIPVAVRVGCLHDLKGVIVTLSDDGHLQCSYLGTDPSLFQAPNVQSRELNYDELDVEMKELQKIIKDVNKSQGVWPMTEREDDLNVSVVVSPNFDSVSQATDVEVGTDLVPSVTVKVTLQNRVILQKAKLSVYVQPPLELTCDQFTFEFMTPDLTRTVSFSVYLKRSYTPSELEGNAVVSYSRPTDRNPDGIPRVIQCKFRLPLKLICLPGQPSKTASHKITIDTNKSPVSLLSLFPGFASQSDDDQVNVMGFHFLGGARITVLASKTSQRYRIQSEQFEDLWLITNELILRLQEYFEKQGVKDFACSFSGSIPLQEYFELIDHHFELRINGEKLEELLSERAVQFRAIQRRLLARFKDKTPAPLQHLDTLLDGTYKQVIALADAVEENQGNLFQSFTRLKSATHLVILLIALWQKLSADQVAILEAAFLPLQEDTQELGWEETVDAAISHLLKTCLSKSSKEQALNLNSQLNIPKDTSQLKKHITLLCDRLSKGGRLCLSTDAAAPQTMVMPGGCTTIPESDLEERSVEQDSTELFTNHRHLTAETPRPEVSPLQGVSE

Variants of: B1
Settings: with pthb1_human BBS9, Q3SYG4

Row | Variant | effect of a mutation on the interaction
1 | MAAASSSDSDACGAESNEANSKWLDAHYDPMANIHTFSACLALADLHGDGEYKLVVGDLGPGGQQPRLKVLKGPLVMTESPLPALPAAAATFLMEQHEPRTPALALASGPCVYVYKNLRPYFKFSLPQLPPNPLEQDLWNQAKEDRIDPLTLKEMLESIRETAEEPLSIQSLRFLQLELSEMEAFVNQHKSNSIKRQTVITTMTTLKKNLADEDAVSCLVLGTENKELLVLDPEAFTILAKMSLPSVPVFLEVSGQFDVEFRLAAACRNGNIYILRRDSKHPKYCIELSAQPVGLIRVHKVLVVGSTQDSLHGFTHKGKKLWTVQMPAAILTMNLLEQHSRGLQAVMAGLANGEVRIYRDKALLNVIHTPDAVTSLCFGRYGREDNTLIMTTRGGGLIIKILKRTAVFVEGGSEVGPPPAQAMKLNVPRKTRLYVDQTLREREAGTAMHRAFQADLYLLRLRAARAYLQALESSLSPLSTTAREPLKLHAVVQGLGPTFKLTLHLQNTSTTRPVLGLLVCFLYNEALYSLPRAFFKVPLLVPGLNYPLETFVESLSNKGISDIIKVLVLREGQSAPLLSAHVNMPGSEGLAAA [T454A] | with no effect
2 | MAAASSSDSDACGAESNEANSKWLDAHYDPMANIHTFSACLALADLHGDGEYKLVVGDLGPGGQQPRLKVLKGPLVMTESPLPALPAAAATFLMEQHEPRTPALALASGPCVYVYKNLRPYFKFSLPQLPPNPLEQDLWNQAKEDRIDPLTLKEMLESIRETAEEPLSIQSLRFLQLELSEMEAFVNQHKSNSIKRQTVITTMTTLKKNLADEDAVSCLVLGTENKELLVLDPEAFTILAKMSLPSVPVFLEVSGQFDVEFRLAAACRNGNIYILRRDSKHPKYCIELSAQPVGLIRVHKVLVVGSTQDSLHGFTHKGKKLWTVQMPAAILTMNLLEQHSRGLQAVMAGLANGEVRIYRDKALLNVIHTPDAVTSLCFGRYGREDNTLIMTTRGGGLIIKILKRTAVFVEGGSEVGPPPAQAMKLNVPRKTRLYVDQTLREREAGTAMHRAFQTDLYLLRLRAARAYLQALESSLSPLSTTAREPLKLHAVVQGLGPTFKLTLHLQNTSTTRPVLGELVCFLYNEALYSLPRAFFKVPLLVPGLNYPLETFVESLSNKGISDIIKVLVLREGQSAPLLSAHVNMPGSEGLAAA [L517E] | disrupting interaction strength
3 | MAAASSSDSDACGAESNEANSKWLDAHYDPMANIHTFSACLALADLHGDGEYKLVVGDLGPGGQQPRLKVLKGPLVMTESPLPALPAAAATFLMEQHEPRTPALALASGPCVYVYKNLRPYFKFSLPQLPPNPLEQDLWNQAKEDRIDPLTLKEMLESIRETAEEPLSIQSLRFLQLELSEMEAFVNQHKSNSIKRQTVITTMTTLKKNLADEDAVSCLVLGTENKELLVLDPEAFTILAKMSLPSVPVFLEVSGQFDVEFRLAAACRNGNIYILRRDSKHPKYCIELSAQPVGLIRVHKVLVVGSTQDSLHGFTHKGKKLWTVQMPAAILTMNLLEQHSRGLQAVMAGLANGEVRIYRDKALLNVIHTPDAVTSLCFGRYGREDNTLIMTTRGGGLIIKILKRTAVFVEGGSEVGPPPAQAMKLNVPRKTRLYVDQTLREREAGTAMHRAFQTDLYLLRLRAARAYLQALEASLSPLSTTAREPLKLHAVVQGLGPTFKLTLHLQNTSTTRPVLGLLVCFLYNEALYSLPRAFFKVPLLVPGLNYPLETFVESLSNKGISDIIKVLVLREGQSAPLLSAHVNMPGSEGLAAA [S473A] | with no effect
4 | MAAASSSDSDACGAESNEANSKWLDAHYDPMANIHTFSACLALADLHGDGEYKLVVGDLGPGGQQPRLKVLKGPLVMTESPLPALPAAAATFLMEQHEPRTPALALASGPCVYVYKNLRPYFKFSLPQLPPNPLEQDLWNQAKEDRIDPLTLKEMLESIRETAEEPLSIQSLRFLQLELSEMEAFVNQHKSNSIKRQTVITTMTTLKKNLADEDAVSCLVLGTENKELLVLDPEAFTILAKMSLPSVPVFLEVSGQFDVEFRLAAACRNGNIYILRRDSKHPKYCIELSAQPVGLIRVHKVLVVGSTQDSLHGFTHKGKKLWTVQMPAAILTMNLLEQHSRGLQAVMAGLANGEVRIYRDKALLNVIHTPDAVTSLCFGRYGREDNTLIMTTRGGGLIIKILKRTAVFVEGGSEVGPPPAQAMKLNVPRKTRLYVDQTLREREAGTAMHRAFQTDLYLLRLRAARAYLQALESSLSPLSTTAREPLKLHAVVQGLGPTFKLTLHLQNTSTTRPVLGLLVCFLYNEALYSLPRAFFKVPLLVPGLNYPLETFVESLSNKGISDIIKVLVLREGQSAPLLSAHVNMAGSEGLAAA [P585A] | with no effect
5 | MAAASSSDSDACGAESNEANSKWLDAHYDPMANIHTFSACLALADLHGDGEYKLVVGDLGPGGQQPRLKVLKGPLVMTESPLPALPAAAATFLMEQHEPRTPALALASGPCVYVYKNLRPYFKFSLPQLPPNPLEQDLWNQAKEDRIDPLTLKEMLESIRETAEEPLSIQSLRFLQLELSEMEAFVNQHKSNSIKRQTVITTMTTLKKNLADEDAVSCLVLGTENKELLVLDPEAFTILAKMSLPSVPVFLEVSGQFDVEFRLAAACRNGNIYILRRDSKHPKYCIELSAQPVGLIRVHKVLVVGSTQDSLHGFTHKGKKLWTVQMPAAILTMNLLEQHSRGLQAVMAGLANGEVRIYRDKALLNVIHTPDAVTSLCFGRYGREDNTLIMTTRGGGLIIKILKRTAVFVEGGSEVGPPPAQAMKLNVPRKTRLYVDQTLREREAGTAMHRAFQTDLYLLRLRAARAYLQALESSLSPLSTTAREPLKLHAVVQGLGPTFKLTLHLQNTSTTRPVLGLLVKFLYNEALYSLPRAFFKVPLLVPGLNYPLETFVESLSNKGISDIIKVLVLREGQSAPLLSAHVNMPGSEGLAAA [C520K] | with no effect
